{"source": "patent US20060204507A1", "about": "(LUDWIG INSTITUTE FOR CANCER RESEARCH, published 2006)", "molecular_target": "T1, HLA-Cw3 on target cells", "T1 construct": "also called HLA-Cw*0304", "assay": "inferred from FW/92 T cell recognition of peptide-pulsed target cells with lactacystin (ELISPOT)", "data": [{"binder": "LAMPFATPM", "note": "[Nonapeptide consisting of amino acids 13-21 of SEQ ID NO: 4]", "values": [{"measurement": "binding result", "value": "binds"}]}]}
